These results are taken from article PMC6858323 (2019).

First the molecules themselves.
B1: PilT^Pa two-hybrid fusion from pKT25::PilT^Pa (wild type) [Pseudomonas aeruginosa] / PilC^Pa two-hybrid fusion from pUT18C::PilC^Pa [Pseudomonas aeruginosa] (parent complex)
chain 1: MDITELLAFSAKQGASDLHLSAGLPPMIRVDGDVRRINLPPLEHKQVHALIYDIMNDKQRKDFEEFLETDFSFEVPGVARFRVNAFNQNRGAGAVFRTIPSKVLTMEELGMGEVFKRVSDVPRGLVLVTGPTGSGKSTTLAAMLDYLNNTKYHHILTIEDPIEFVHESKKCLVNQREVHRDTLGFSEALRSALREDPDIILVGEMRDLETIRLALTAAETGHLVFGTLHTTSAAKTIDRVVDVFPAEEKAMVRSMLSESLQSVISQTLIKKIGGGRVAAHEIMIGTPAIRNLIREDKVAQMYSAIQTGGSLGMQTLDMCLKGLVAKGLISRENAREKAKIPENF
chain 2: MLVKAHLRKQGINPLKVRKKGISLLGAGKKVKPMDIALFTRQMATMMGAGVPLLQSFDIIGEGFDNPNMRKLVDEIKQEVSSGNSLANSLRKKPQYFDELYCNLVDAGEQSGALENLLDRVATYKEKTESLKAKIRKAMTYPIAVIIVALIVSAILLIKVVPQFQSVFQGFGAELPAFTQMVVNLSEFLQEWWLAVIVGVGAIGFTFKELHKRSKKFRDTLDRTILKLPIFGGIVYKSAVARYARTLSTTFAAGVPLVDALDSVSGATGNIVFKNAVSKIKQDVSTGMQLNFSMRTTSVFPNMAIQMTAIGEESGSLDEMLSKVASYYEEEVDNAVDNLTTLMEPMIMAVLGVLVGGLIVAMYLPIFQLGNVVG

In the experiment the parent is B1. The experiment is described as follows: bacterial two-hybrid (BACTH), β-galactosidase activity; E. coli BTH101; n = 3; parent: 650; read off a plot.
chain 1 K58Q: the response was approximately 630 Miller units.

In the case of chain 1 K58A, the response is approximately 700 Miller units.

For chain 1 K58R, the response is approximately 750 Miller units.

Turning to chain 1 R294E, the response is approximately 200 Miller units.

For the variant chain 1 T216R, the response is approximately 700 Miller units.

On to chain 1 D242K, for which the response is approximately 670 Miller units.

With chain 1 E219K, the response was approximately 230 Miller units.

In the case of chain 1 D31K, the response is approximately 220 Miller units.

As to chain 1 R123D, the response was approximately 140 Miller units.

Turning to chain 1 E258A, the response is approximately 850 Miller units.

With chain 1 R239A, the response was approximately 490 Miller units.
